Source: patent publication US20130052198A1, “ANTI-INFLAMMATORY FACTORS” (THE GENERAL HOSPITAL CORPORATION, priority 2010, published 2013)
“Also recorded” adds a separate entry of the source.

How the values were obtained:
[1] = test system: human peripheral blood mononuclear cells (PBMCs); assay: PBMC potency assay (IL-10 assay): IL-10 secretion by LPS-stimulated PBMCs, ELISA; type: cell-based; settings: recombinant molecules diluted in RPMI 1640
Text: FIG. 1: MSC conditioned medium causes peripheral blood mononuclear cells to secrete IL-10 in response to LPS, providing the basis for differential gene expression analysis to identify genes responsible for the increased activity. (a) Generalized schematic of EPS methodology. Protein products are derived from various cell types in the form of conditioned media and screened for activity in an in vitro potency assay. […] Recombinant protein products of the enriched gene list are then screened in a potency assay and the candidates with the highest activity are assessed for activity in vivo. (b) In vitro potency assay. This assay entails incubating primary human peripheral blood mononuclear cells (PBMCs) in the presence of protein products (e.g., conditioned medium from a cell) for 16 hours, followed by stimulation of the PBMCs with LPS for five hours, and measurement of IL-10 secretion into the supernatant via ELISA. (c) Time course of IL-10 expression from PBMCs when incubated with either bone marrow stromal cell conditioned medium (BMSC-CM) or unconditioned medium (DMEM) in the potency assay. (d) Comparison of potency assay activity of conditioned medium from normal human dermal fibroblasts (FB-CM), BMSCs (BMSC-CM) and BMSCs preincubated with LPS prior to conditioning (BMSCLPS-CM). * p<0.001 compared to FB-CM, ** p<0.001 compared to BMSC-CM. (e) Schematic of the differential gene expression comparison strategy to select for genes uniquely expressed at high levels in LPS stimulated MSCs (MSCLPS) compared to MSCs and fibroblasts (FBs). Analysis was then conducted on the genes identified to select for genes that were most likely to be responsible for secreted proteins. MSCLPS, LPS stimulated MSC; FB, fibroblast. […]
Leukocytes were prepared from fresh whole human blood, collected and spun in the presence of Ficoll for 30 minutes at 1500×g. […] The resultant supernatants were collected and analyzed via ELISA for human interleukin-10 (IL-10). […]

[2] = test system: colitic mice (TNBS colitis); assay: TNBS colitis in mice, colon histopathology; type: in vivo; settings: 3 μg protein twice over 24 h; sacrifice at day 2; compared to vehicle (saline)
Description: FIG. 6: Administered MFAP5 and LGALS3BP protect mice from developing TNBS colitis. Mice were presensitized via the skin with 1% TNBS one week prior to intra-rectal administration of 3 mg of TNBS per mouse in a mixture of 50% EtOH and 50% sterile water to induce colitis. Mice were treated with 3 μg each of MFAP5, LGALS3BP and GALNT1 twice over a 24 hour period, once in conjunction with the TNBS administration and once 24 hours later. Mice were then sacrificed at day 2 and tissue collected for analysis. As expected, mice treated with vehicle (saline) developed extensive inflammation of the colon with loss of crypts and frank necrosis of the intestinal epithelium.
MFAP5, LGALS3BP and PENK all protected the colonic epithelium from the hallmark features of TNBS colitis: necrosis, inflammatory infiltrate and loss of crypts. Especially at the microscopic level, the tissue of the MFAP5, LGALS3BP and PENK treated animals looked mostly normal with minor foci of inflammation and edema.

[3] = test system: BALB/cJ mice challenged with a sub-lethal dose of LPS; assay: In vivo LPS assay, sub-lethal LPS model: serum cytokines and lung histology; settings: for serum IL-10 levels / serum TNF-α: 3 μg protein or 1 mL 1×BMSC-CM IP, twice, 100 μg LPS, 48 h later, compared to saline
Description: FIG. 8: In vivo hit screen and survival study. (a) Schematic of the in vivo LPS assay. Proteins were administered intraperitoneal (IP) at the concentration that elicited the strongest effect in vitro, followed by IP administration of LPS in conjunction with a second dose of the proteins 16 hours later. Two days after the combined LPS and second protein dose, the mice were sacrificed and assessed for changes in serum cytokines and tissue histology. (b) Serum IL-10 levels of BALB/cJ mice subjected to the in vivo LPS assay. * p<0.001 compared to saline. (c) Serum TNF-α levels of BALB/cJ mice subjected to the in vivo LPS assay. * p<0.001 compared to saline, ** p<0.05 compared to BMSC-CM. (d) Representative micrographs of lung tissue from mice subjected to the in vivo LPS assay stained with hematoxylin and eosin. (e) Survival of mice subjected to a lethal dose of LPS i.p. (350 μg) concurrently with i.p. saline vehicle (bold dark blue line), 5 μg Anti-TNF-α antibody (thin dark blue line), 4 μg PENK (bold light blue line) or 4 μg MFAP5 (thin light blue line). Scale bar=200 μm.
All procedures were performed in accordance with the animal rights policies of the Massachusetts General Hospital Subcommittee on Research Animal Care. For the sub-lethal LPS model, eight week old female BALB/cJ mice (n≧3) (Jackson Laboratories, Bar Harbor, Me.) were administered an initial dose of either vehicle or one of the experimental therapies IP: 200 μL of saline (vehicle), or 3 μg of protein (e.g., GALNT1, LGALS3BP, MFAP5 or PENK) diluted in 200 μL of saline, or 1 mL of 1×BMSC-CM. 16 hours later, mice received a second dose of either vehicle or therapy in conjunction with a dose of 100 μg of LPS (E. coli 0111:B4; Sigma, St. Louis, Mo.) diluted in physiological saline. 48 hours later, mice were sacrificed and tissue and blood were collected for analysis. Serum was tested for the presence of IL-10 and TNF-α via ELISA and lungs, livers and kidneys of the animals were preserved for hematoxylin and eosin staining. For the lethal LPS model, eight week old female BALB/cJ mice (n≧5) were co-administered a lethal dose of LPS (350 μg LPS in 100 μL physiological saline) and either vehicle (negative control), 5 μg anti-TNF-α (positive control; R&D Systems, Minneapolis, Minn.), 4 μg MFAP5 diluted in 100 μL of physiological saline, or 4 μg of PENK diluted in 100 μL of physiological saline. Mice were monitored for survival for seven days (168 hours).

[4] = test system: human leukocytes in culture; assay: Cytokine production (IL-10 or IFN-γ) in human leukocytes in culture; type: cell-based; settings: concentrations within five orders of magnitude of 10 μg/mL
Description: Leukocytes were prepared from fresh whole human blood, collected and spun in the presence of Ficoll for 30 minutes at 1500×g. The mononuclear cell layer was transferred to a new tube where it was washed once with RPMI 1640. The mononuclear cells were plated at a density of 1×10^5 per well of a 96-well plate in 50 μL of RPMI 1640 per well. MSC-CM was then immediately added to each well and allowed to incubate in the presence of the mononuclear cells for 16 hours. After incubation, 50 μL of RPMI 1640 containing 10 μg/mL of LPS was added to each well and allowed to incubate for an additional 5 hours. The resultant supernatants were collected and analyzed via ELISA for human interleukin-10 (IL-10). This procedure of incubating leukocytes with MSC-CM to determine IL-10 stimulating activity will be henceforth referred to as the “IL-10 assay”.
Preparations and use of MSC-CM, Fb-CM, LPS-stimulated MSC-CM, leukocytes were as described in Examples 1-3 and the Figures. These conditioned media preparations were added to leukocyte cultures for 16 hours, after which the culture was stimulated with LPS at 10 μg/ml. The medium from this culture was collected 24 hours after LPS stimulation of leukocytes and analyzed using an IFN-γ ELISA.

B1: LGALS3BP: Soluble galectin 3 binding protein, highly glycosylated secreted protein; recombinant form tested (protein, UniProt Q08380 19-585, looked up)
Galectin-3-binding protein: VNDGDMRLADGGATNQGRVEIFYRGQWGTVCDNLWDLTDASVVCRALGFENATQALGRAAFGQGSGPIMLDEVQCTGTEASLADCKSLGWLKSNCRHERDAGVVCTNETRSTHTLDLSRELSEALGQIFDSQRGCDLSISVNVQGEDALGFCGHTVILTANLEAQALWKEPGSNVTMSVDAECVPMVRDLLRYFYSRRIDITLSSVKCFHKLASAYGARQLQGYCASLFAILLPQDPSFQMPLDLYAYAVATGDALLEKLCLQFLAWNFEALTQAEAWPSVPTDLLQLLLPRSDLAVPSELALLKAVDTWSWGERASHEEVEGLVEKIRFPMMLPEELFELQFNLSLYWSHEALFQKKTLQALEFHTVPFQLLARYKGLNLTEDTYKPRIYTSPTWSAFVTDSSWSARKSQLVYQSRRGPLVKYSSDYFQAPSDYRYYPYQSFQTPQHPSFLFQDKRVSWSLVYLPTIQSCWNYGFSCSSDELPVLGLTKSGGSDRTIAYENKALMLCEGLFVADVTDFEGWKAAIPSALDTNSSKSTSSFPCPAGHFNGFRTVIRPFYLTNSSGVD
[1]
  increase of IL-10 production compared to 10×MSC-CM: superior to that induced by 10×MSC-CM
[2]
  protection from TNBS colitis (colon histopathology): protect the mice from developing acute colitis; also recorded: significant attenuation of colitis; also recorded: protected from developing extensive colonic inflammation
[3]
  serum IL-10 levels: no IL-10 response
  serum TNF-α: significantly suppressed
[4]
  promote IL-10 production or suppress IFN-γ production: either promote IL-10 production or suppress IFN-γ production

B2: UDP-N-acetyl-α-D-galactosamine:polypeptide N-acetylgalactosaminyltransferase 1 (protein, UniProt Q10472 1-559, looked up)
Polypeptide …: MRKFAYCKVVLATSLIWVLLDMFLLLYFSECNKCDEKKERGLPAGDVLEPVQKPHEGPGEMGKPVVIPKEDQEKMKEMFKINQFNLMASEMIALNRSLPDVRLEGCKTKVYPDNLPTTSVVIVFHNEAWSTLLRTVHSVINRSPRHMIEEIVLVDDASERDFLKRPLESYVKKLKVPVHVIRMEQRSGLIRARLKGAAVSKGQVITFLDAHCECTVGWLEPLLARIKHDRRTVVCPIIDVISDDTFEYMAGSDMTYGGFNWKLNFRWYPVPQREMDRRKGDRTLPVRTPTMAGGLFSIDRDYFQEIGTYDAGMDIWGGENLEISFRIWQCGGTLEIVTCSHVGHVFRKATPYTFPGGTGQIINKNNRRLAEVWMDEFKNFFYIISPGVTKVDYGDISSRVGLRHKLQCKPFSWYLENIYPDSQIPRHYFSLGEIRNVETNQCLDNMARKENEKVGIFNCHGMGGNQVFSYTANKEIRTDDLCLDVSKLNGPVTMLKCHHLKGNQLWEYDPVKLTLQHVNSNQCLDKATEEDSQVPSIRDCNGSRSQQWLLRNVTLPEIF
notes: recombinant protein product of the GALNT1 gene, secreted factor of marrow stromal cells
[1]
  increase of IL-10 production compared to 10×MSC-CM: superior to that induced by 10×MSC-CM
[2]
  protection from TNBS colitis (colon histopathology): not protected from development of colitis
[3]
  serum IL-10 levels: Significantly elevated
  serum TNF-α: not
[3]; hematoxylin and eosin, sub-lethal LPS model, compared to vehicle
  lung histology (lung protection): moderate protection
[4]
  promote IL-10 production or suppress IFN-γ production: either promote IL-10 production or suppress IFN-γ production

B3: TFPI2: isolated and purified molecular product of the gene TFPI2 (protein, UniProt P48307 23-235, looked up)
Tissue factor pathway …: DAAQEPTGNNAEICLLPLDYGPCRALLLRYYYDRYTQSCRQFLYGGCEGNANNFYTWEACDDACWRIEKVPKVCRLQVSVDDQCEGSTEKYFFNLSSMTCEKFFSGGCHRNRIENRFPDEATCMGFCAPKKIPSFCYSPKDEGLCSANVTRYYFNPRYRTCDAFTYTGCGGNDNNFVSREDCKRACAKALKKKKKMPKLRFASRIRKIRKKQF
[4]
  promote IL-10 production or suppress IFN-γ production: either promote IL-10 production or suppress IFN-γ production

B4: CRLF1: isolated and purified molecular product of the gene CRLF1 (protein, UniProt O75462 38-422, looked up)
Cytokine receptor-like factor …: AHTAVISPQDPTLLIGSSLLATCSVHGDPPGATAEGLYWTLNGRRLPPELSRVLNASTLALALANLNGSRQRSGDNLVCHARDGSILAGSCLYVGLPPEKPVNISCWSKNMKDLTCRWTPGAHGETFLHTNYSLKYKLRWYGQDNTCEEYHTVGPHSCHIPKDLALFTPYEIWVEATNRLGSARSDVLTLDILDVVTTDPPPDVHVSRVGGLEDQLSVRWVSPPALKDFLFQAKYQIRYRVEDSVDWKVVDDVSNQTSCRLAGLKPGTVYFVQVRCNPFGIYGSKKAGIWSEWSHPTAASTPRSERPGPGGGACEPRGGEPSSGPVRRELKQFLGWLKKHAYCSNLSFRLYDQWRAWMQKSHKTRNQDEGILPSGRRGTARGPAR
[4]
  promote IL-10 production or suppress IFN-γ production: either promote IL-10 production or suppress IFN-γ production
